Results published in publication PMC3071548 (Molecular microbiology, 2010).

Target: the molecule itself
Assay: SEC

B1: YgbT, purified full-length protein (natural protein, E. coli, UniProt Q46896 1-305, looked up)
chain: MTWLPLNPIPLKDRVSMIFLQYGQIDVIDGAFVLIDKTGIRTHIPVGSVACIMLEPGTRVSHAAVRLAAQVGTLLVWVGEAGVRVYASGQPGGARSDKLLYQAKLALDEDLRLKVVRKMFELRFGEPAPARRSVEQLRGIEGSRVRATYALLAKQYGVTWNGRRYDPKDWEKGDTINQCISAATSCLYGVTEAAILAAGYAPAIGFVHTGKPLSFVYDIADIIKFDTVVPKAFEIARRNPGEPDREVRLACRDIFRSSKTLAKLIPLIEDVLAAGEIQPPAPPEDAQPVAIPLPVSLGDAGHRSS
stoichiometry N: 2
